T1: Transient receptor potential cation channel subfamily V member 6 (TRPV6) protein (human, UniProt Q9H1D0 1-765)
T1 construct: Calcium channel; also called human TRPV6 protein
T1 sequence: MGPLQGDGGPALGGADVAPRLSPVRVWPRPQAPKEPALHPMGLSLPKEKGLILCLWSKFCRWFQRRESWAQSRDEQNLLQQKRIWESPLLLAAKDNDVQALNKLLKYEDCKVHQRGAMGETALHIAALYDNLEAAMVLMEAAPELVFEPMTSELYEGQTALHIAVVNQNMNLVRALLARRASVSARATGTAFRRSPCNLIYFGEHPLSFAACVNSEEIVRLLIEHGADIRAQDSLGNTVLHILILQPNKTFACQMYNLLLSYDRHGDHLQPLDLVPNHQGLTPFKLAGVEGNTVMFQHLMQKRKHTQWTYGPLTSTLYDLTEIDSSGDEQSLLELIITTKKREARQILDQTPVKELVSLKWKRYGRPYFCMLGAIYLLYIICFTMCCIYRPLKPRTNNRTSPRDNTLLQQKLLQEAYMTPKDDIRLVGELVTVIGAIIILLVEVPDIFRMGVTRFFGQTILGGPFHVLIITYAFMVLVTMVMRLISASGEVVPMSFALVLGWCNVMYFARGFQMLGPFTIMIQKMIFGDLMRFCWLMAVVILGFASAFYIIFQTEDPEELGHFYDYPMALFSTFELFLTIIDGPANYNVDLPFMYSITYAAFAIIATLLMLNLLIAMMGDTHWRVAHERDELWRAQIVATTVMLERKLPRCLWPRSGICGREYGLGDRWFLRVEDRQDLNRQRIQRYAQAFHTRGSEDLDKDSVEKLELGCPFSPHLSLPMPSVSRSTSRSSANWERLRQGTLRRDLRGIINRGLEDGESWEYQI

B1: CB-Anti-0002 antibody (antibody, IgG1, V domains shown)
VH: EVKLEESGGGLVQPGGSMKLSCVASGFTFSYYWMNWVRQSPEKGLEWVAEIRLKSHNYATHYAESVKGRFTISRDDSKSSVYLQMNNLRSEDTGIYYCARLAYDGERYYYALDYWGQGTSVTVSS
VL: DIVMSQSPSSLAVSVGEKFTMSCKSSQSLLYSNNQKNYLAWYQQKPGQSPKLLIYWASTRESGVPDRFTGSGYGTDFTLTISSVKAEDLAVYYCQQYYSYPFTFGSGTKLEIK
notes: also called antibody of hybridoma cell line 16CT 4.1.1.2; 16CT4.1.1.2
B2: CB-Anti-0001 antibody (antibody, IgG1, V domains shown)
VH: QVQVQQPGAELVKPGTSVKLSCKASGYTFTSYWMHWVKQRPGQGLEWIGEIDPSDGYTNYNQKFRGKATLSVDKSSTTAYMQLSSLTSEDSAVYYCGWAGDFWGQGTTLTVSS
VL: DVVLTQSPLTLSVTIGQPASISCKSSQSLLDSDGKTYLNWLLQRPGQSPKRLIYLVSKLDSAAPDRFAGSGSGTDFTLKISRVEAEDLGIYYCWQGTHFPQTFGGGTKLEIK
notes: also called antibody of hybridoma cell line 12CT 9.5.1; 12CT9.5.1

Biological target: T1, Transient receptor potential cation …
Test: IHC on tissue slices

| binding result | Binder |
| --- | --- |
| binds | B1 |
| binds | B2 |
